In the supplement of paper PMC9112550, “Optimization of the antimicrobial peptide Bac7 by deep mutational scanning” (BMC Biology, 2022):

Test system: Escherichia coli TOP10
Assay: shrunken log2 fold change of peptide-encoding DNA abundance (4.5 h post-induction vs induction); higher = less antimicrobial activity (less host growth inhibition)
Settings: time post-induction: 4.5 h; library: site-saturation at positions 5, 18, 19, 20
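Also: peptides expressed intracellularly from a pBAD plasmid library in pooled LB shake-flask culture, induced with 0.3% L-arabinose, DNA abundance read by NGS, three biological replicates, DESeq2 with apeglm shrinkage.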

Sequence	shrunken log2 fold change
RRIRVRPPRLPRPRPRPPPHPRP	0.676
RRIRRRPPRLPRPRPRPYFAPRP	0.487
RRIRDRPPRLPRPRPRPQTIPRP	-0.164
RRIRCRPPRLPRPRPRPCRQPRP	0.0584
RRIRRRPPRLPRPRPRPKWGPRP	1.2
RRIRERPPRLPRPRPRPGRDPRP	0.419
RRIRCRPPRLPRPRPRPMQLPRP	-0.239
RRIRGRPPRLPRPRPRPICKPRP	0.616
RRIRMRPPRLPRPRPRPHSIPRP	0.0955
RRIRTRPPRLPRPRPRPRFKPRP	0.115
RRIRERPPRLPRPRPRPCWRPRP	0.27
RRIRKRPPRLPRPRPRPVEMPRP	0.126
RRIRMRPPRLPRPRPRPGDHPRP	0.147
RRIRSRPPRLPRPRPRPHWMPRP	0.0168
RRIRHRPPRLPRPRPRPRMYPRP	-0.194
RRIRKRPPRLPRPRPRPSEFPRP	0.154
RRIRPRPPRLPRPRPRPNWVPRP	-0.2
RRIRIRPPRLPRPRPRPEQDPRP	0.0197
RRIRDRPPRLPRPRPRPTKWPRP	0.0286
RRIRVRPPRLPRPRPRPITYPRP	-0.911
RRIRNRPPRLPRPRPRPNCPPRP	-0.361
RRIRMRPPRLPRPRPRPYYMPRP	-0.0189
RRIRFRPPRLPRPRPRPRWLPRP	0.269
RRIRIRPPRLPRPRPRPTVLPRP	-0.369
RRIRIRPPRLPRPRPRPPGLPRP	0.204

Sequence	shrunken log2 fold change
RRIRMRPPRLPRPRPRPNLWPRP	0.119
RRIRERPPRLPRPRPRPLKCPRP	-0.11
RRIRRRPPRLPRPRPRPHFAPRP	0.382
RRIRFRPPRLPRPRPRPADPPRP	0.109
RRIRPRPPRLPRPRPRPNINPRP	-0.795
RRIRDRPPRLPRPRPRPVDRPRP	0.358
RRIRDRPPRLPRPRPRPMGCPRP	-0.000921
RRIRHRPPRLPRPRPRPMYEPRP	-0.0116
RRIRTRPPRLPRPRPRPKMVPRP	-0.0237
RRIRRRPPRLPRPRPRPIILPRP	-0.406
RRIRIRPPRLPRPRPRPESCPRP	-0.0796
RRIRVRPPRLPRPRPRPEEVPRP	0.0207
RRIRCRPPRLPRPRPRPECIPRP	0.0623
RRIRMRPPRLPRPRPRPNFYPRP	-0.00797
RRIRCRPPRLPRPRPRPDMVPRP	-0.184
RRIRARPPRLPRPRPRPHHSPRP	-0.404
RRIRSRPPRLPRPRPRPIWSPRP	0.0119
RRIRPRPPRLPRPRPRPQFEPRP	0.0184
RRIRLRPPRLPRPRPRPFDYPRP	-0.974
RRIRERPPRLPRPRPRPNTFPRP	-0.388
RRIRTRPPRLPRPRPRPDIKPRP	-0.197
RRIRQRPPRLPRPRPRPAARPRP	0.246
RRIRIRPPRLPRPRPRPHAEPRP	-0.217
RRIRLRPPRLPRPRPRPFAIPRP	0.0494
RRIRIRPPRLPRPRPRPCSEPRP	-0.0312

Sequence	shrunken log2 fold change
RRIRGRPPRLPRPRPRPKSHPRP	0.536
RRIRFRPPRLPRPRPRPSMQPRP	-0.209
RRIRVRPPRLPRPRPRPFSTPRP	-0.496
RRIRSRPPRLPRPRPRPISQPRP	-0.387
RRIRARPPRLPRPRPRPWDCPRP	0.0143
RRIRLRPPRLPRPRPRPQPTPRP	0.0811
RRIRGRPPRLPRPRPRPIVIPRP	-0.227
RRIRSRPPRLPRPRPRPLFIPRP	-0.74
RRIRTRPPRLPRPRPRPSSRPRP	0.543
RRIRHRPPRLPRPRPRPERPPRP	-0.0369
RRIRPRPPRLPRPRPRPCWYPRP	-0.408
RRIRYRPPRLPRPRPRPHPVPRP	-0.185
RRIRHRPPRLPRPRPRPRTSPRP	0.245
RRIRRRPPRLPRPRPRPGCLPRP	0.702
RRIRQRPPRLPRPRPRPRNLPRP	0.242
RRIRIRPPRLPRPRPRPQTSPRP	-0.404
RRIRGRPPRLPRPRPRPKENPRP	0.791
RRIRARPPRLPRPRPRPYESPRP	-0.103
RRIRMRPPRLPRPRPRPEEVPRP	0.00922
RRIRPRPPRLPRPRPRPAGMPRP	-0.00962
RRIRVRPPRLPRPRPRPKTEPRP	0.00185
RRIRHRPPRLPRPRPRPMHSPRP	0.0758
RRIRSRPPRLPRPRPRPFAKPRP	-0.136
RRIRIRPPRLPRPRPRPCMHPRP	-0.171
RRIRIRPPRLPRPRPRPNERPRP	-0.319

Sequence	shrunken log2 fold change
RRIRHRPPRLPRPRPRPDHMPRP	0.00372
RRIRRRPPRLPRPRPRPSNSPRP	-0.108
RRIRFRPPRLPRPRPRPAYIPRP	-0.601
RRIRYRPPRLPRPRPRPTFVPRP	-0.0102
RRIRMRPPRLPRPRPRPWWPPRP	0.445
RRIRMRPPRLPRPRPRPFQMPRP	-0.323
RRIRPRPPRLPRPRPRPANIPRP	-0.617
RRIRNRPPRLPRPRPRPRWAPRP	0.417
RRIRSRPPRLPRPRPRPGYLPRP	-0.388
RRIRVRPPRLPRPRPRPEIGPRP	0.0353
RRIRTRPPRLPRPRPRPPICPRP	0.0623
RRIRNRPPRLPRPRPRPFISPRP	-0.0484
RRIRMRPPRLPRPRPRPQLSPRP	-0.102
RRIRQRPPRLPRPRPRPLHHPRP	-0.73
RRIRTRPPRLPRPRPRPFSHPRP	-0.399
RRIRMRPPRLPRPRPRPQGWPRP	1.01
RRIRIRPPRLPRPRPRPNEPPRP	-0.0172
RRIRARPPRLPRPRPRPVSGPRP	0.398
RRIRKRPPRLPRPRPRPHFHPRP	0.0831
RRIRFRPPRLPRPRPRPHHVPRP	-0.323
RRIRTRPPRLPRPRPRPQEEPRP	-0.0236
RRIRIRPPRLPRPRPRPLGAPRP	0.241
RRIRERPPRLPRPRPRPSKNPRP	-0.895
RRIRSRPPRLPRPRPRPGLKPRP	0.14
RRIRPRPPRLPRPRPRPADIPRP	0.142

Sequence	shrunken log2 fold change
RRIRDRPPRLPRPRPRPAMWPRP	1.24
RRIRMRPPRLPRPRPRPRKVPRP	0.767
RRIRMRPPRLPRPRPRPKYLPRP	-0.278
RRIRQRPPRLPRPRPRPYPNPRP	-0.0164
RRIRGRPPRLPRPRPRPQPFPRP	-0.0232
RRIRMRPPRLPRPRPRPHLGPRP	0.086
RRIRCRPPRLPRPRPRPWCDPRP	-0.211
RRIRGRPPRLPRPRPRPADFPRP	0.149
RRIRWRPPRLPRPRPRPNFNPRP	-0.198
RRIRDRPPRLPRPRPRPQCCPRP	0.0263
RRIRQRPPRLPRPRPRPQMLPRP	0.0203
RRIRLRPPRLPRPRPRPGYHPRP	-0.421
RRIRYRPPRLPRPRPRPKCYPRP	-0.112
RRIRARPPRLPRPRPRPKMTPRP	0.365
RRIRVRPPRLPRPRPRPIRFPRP	-0.0571
RRIRGRPPRLPRPRPRPIYLPRP	0.0531
RRIRLRPPRLPRPRPRPVCMPRP	-0.246
RRIRTRPPRLPRPRPRPRKDPRP	-0.0522
RRIRPRPPRLPRPRPRPRMPPRP	0.249
RRIRTRPPRLPRPRPRPPSCPRP	0.35
RRIRKRPPRLPRPRPRPHPHPRP	2.25
RRIRWRPPRLPRPRPRPFQDPRP	-0.496
RRIRWRPPRLPRPRPRPRNCPRP	-0.00862
RRIRERPPRLPRPRPRPYRWPRP	-0.0887
RRIRNRPPRLPRPRPRPITTPRP	-0.225

Sequence	shrunken log2 fold change
RRIRGRPPRLPRPRPRPYDCPRP	-0.147
RRIRGRPPRLPRPRPRPNADPRP	2.38
RRIRNRPPRLPRPRPRPPHTPRP	-0.0383
RRIRQRPPRLPRPRPRPVRMPRP	0.149
RRIRKRPPRLPRPRPRPIDDPRP	0.0889
RRIRRRPPRLPRPRPRPFIFPRP	0.25
RRIRWRPPRLPRPRPRPTPEPRP	0.711
RRIRTRPPRLPRPRPRPVPCPRP	-0.0501
RRIRMRPPRLPRPRPRPVSSPRP	-0.0703
RRIRQRPPRLPRPRPRPEFQPRP	-0.0764
RRIRERPPRLPRPRPRPICIPRP	-0.0731
RRIRKRPPRLPRPRPRPNYTPRP	-0.281
RRIRTRPPRLPRPRPRPSPTPRP	0.0477
RRIRCRPPRLPRPRPRPNCCPRP	0.188
RRIRLRPPRLPRPRPRPPESPRP	0.367
RRIRNRPPRLPRPRPRPKVLPRP	-0.105
RRIRLRPPRLPRPRPRPVCFPRP	-0.059
RRIRARPPRLPRPRPRPRYNPRP	-0.487
RRIRKRPPRLPRPRPRPQDCPRP	-0.104
RRIRDRPPRLPRPRPRPAVFPRP	-0.0356
RRIRARPPRLPRPRPRPFFPPRP	0.527
RRIRYRPPRLPRPRPRPSQWPRP	-0.162
RRIRPRPPRLPRPRPRPKISPRP	-0.0927
RRIRARPPRLPRPRPRPEQCPRP	0.42
RRIRFRPPRLPRPRPRPDYEPRP	-0.407
